Measurements reported in patent publication US9073997B2, “Growth factor antagonists for organ transplant alloimmunity and arteriosclerosis” (VEGENICS PTY LIMITED, priority 2007, dated 2015).

Columns and labels:
[1] = target: T1, VEGF-A 109 (Homo sapiens, UniProt P15692); assay: Receptor fragment/Fc fusion ligand precipitation binding assay, VEGF-A 109; conditions: VEGFR-2 Fc fusion constructs; tritiated VEGF-A 109 precipitated, analysis of PAGE gels
T1 construct: fragments with 109 residues each (called VEGF-A 109 and VEGF-C 109); His6 (C); made in house; host or cells: 293T cells (labelled supernatant)
T1 sequence (P15692 with tags, fused parts or gaps): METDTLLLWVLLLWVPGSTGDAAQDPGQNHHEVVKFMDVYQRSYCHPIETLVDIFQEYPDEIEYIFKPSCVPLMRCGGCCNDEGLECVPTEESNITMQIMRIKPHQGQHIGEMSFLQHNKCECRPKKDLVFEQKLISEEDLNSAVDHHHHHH
From the text: (§1) The binding assays utilized minimal VEGF-A (SEQ ID NOS: 106 and 107) and VEGF-C (SEQ ID NOS: 108 and 109) fragments with 109 residues each (called VEGF-A 109 and VEGF-C 109). These constructs are not naturally occurring, but are effective for binding assays. Other growth factor constructs, either natural or artificial, may also be used for performing these assays.
(§2) Either Tritiated VEGF-A 109 or VEGF-C 109 was used in a given binding experiment. Ligand in solution was precipitated by mixing […] of ligand solution with 100 μl binding mix at 4° C. overnight, with agitation. The ligand solution may be the supernatant of metabolically labeled 293T cells. The binding mixes used for the receptor binding analysis were as follows: for VEGFR-1 binding assays, the binding mix was phosphate buffered saline (PBS) containing 1.5% BSA, 0.06% Tween 20, 3 μg/ml heparin and 400 ng/ml VEGFR-1-Fc fusion protein (100 μl of this binding mix was added to 200 μl of ligand solution). For VEGFR-2 binding assays, the binding mix was 82% conditioned cell supernatant from 293T cells transiently expressing VEGFR-2-Fc fusion protein in mixture with 18% of a PBS solution that contained 5% BSA, 0.2% Tween 20, and 10 μg/ml heparin (250 μl of binding mix was added to 200 μl of ligand solution). For VEGFR-3 binding assays, the binding mix was 82% conditioned cell supernatant from 293T cells transiently expressing VEGFR-3-Fc fusion protein, 18% of PBS containing 5% BSA, 0.2% Tween 20, and 10 μg/ml heparin (250 μl of binding mix was added to 200 μl of ligand solution). To collect precipitated ligand, 50 μl of a 30% protein A sepharose (PAS, Pharmacia) slurry in PBS was added and incubated under agitation for at least 1.5 hr at 4° C. Standard buffer was added to each immunoprecipitation sample and boiled for 5 minutes at 95° C. during which the immunopreciptated proteins become dissociated from the protein A sepharose. After centrifugation, 10 μl of each sample was analyzed on 15% SDS-PAGE under reducing conditions. The gels were dried and exposed for either 12 hours on phosphorimager plates or 4 weeks on X-ray film.
(§3) Tables 3 and 4 identify constructs by name, a DNA and deduced amino acid sequence from the sequence listing, the portion of VEGFR-2 (SEQ ID NO: 4) or VEGFR-3 (SEQ ID NO: 6) amino acid sequence that was included in the constructs, whether the constructs expressed, and, if tested, whether constructs bound ligand. The table data is compiled from analysis of PAGE gels. The asterisk adjacent to the “B*” indicates a “spill-over” from the adjacent lane, as the origin of the bands seen in the “B” lane. A failure to express under the particular experimental conditions used in this instance should not be interpreted as a failure to bind. The experiments can be repeated using different receptor fragments, binding constructs, ligands, or combinations thereof.

[2] = target: T2, VEGF-C 109 (Homo sapiens, UniProt P49767); assay: Receptor fragment/Fc fusion ligand precipitation binding assay, VEGF-C 109; conditions: tritiated VEGF-C 109 precipitated, analysis of PAGE gels
T2 construct: fragments with 109 residues each (called VEGF-A 109 and VEGF-C 109); His6 (C); made in house; host or cells: 293T cells (labelled supernatant)
T2 sequence (P49767 with tags, fused parts or gaps): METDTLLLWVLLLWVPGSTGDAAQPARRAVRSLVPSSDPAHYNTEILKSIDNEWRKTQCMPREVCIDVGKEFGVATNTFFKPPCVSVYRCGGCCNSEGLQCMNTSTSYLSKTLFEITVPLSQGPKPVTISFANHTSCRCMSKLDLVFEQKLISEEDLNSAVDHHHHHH
From the text: as §1, §2, §3

[3] = target: T3, VEGF-A165 (Homo sapiens, UniProt P15692); assay: Ligand binding analysis of chimeric VEGF receptor/hIgG1Fc fusions, VEGF-A165; conditions: for binding to VEGF-A: 35S-labeled VEGF-A165 precipitated with conditioned medium of 293T cells, SDS-PAGE
T3 construct: made in house; host or cells: 293T cells, transient transfection, 35S-labelled conditioned medium
T3 sequence (P15692 27-191 isoform P15692-4): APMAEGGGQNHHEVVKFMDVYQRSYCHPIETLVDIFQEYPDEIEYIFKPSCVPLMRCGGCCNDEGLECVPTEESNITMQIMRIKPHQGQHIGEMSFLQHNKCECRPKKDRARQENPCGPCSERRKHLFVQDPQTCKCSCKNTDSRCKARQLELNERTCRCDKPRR
Experimental: (§4) For expression analysis, the two new chimeric VEGF receptors and control constructs expressing R-1D1-3/hIgG1Fc, R-2D1-3/hIgG1Fc, R-3D1-3/hIgG1Fc, mature VEGF-C and VEGF-A165 were transiently transfected into 293T cells using JetPEI (QBioGene/MP Biomedicals, Irvine, Calif.). Metabolic labeling with ^35S-methionine and ^35S-cysteine was carried out at 48 hours post-transfection and labeling maintained for 24 hours. The serum-free conditioned medium was then immunoprecipitated using Protein A sepharose and either: a) specific antiserum against human mature VEGF-C; b) goat polyclonal antibody against human VEGF-A (R&D systems, Minneapolis, Minn.); or, c) serum-free medium of 293T cells taken 48 to 72 hours post-transient transfection with VEGF receptor/hIgG1Fc proteins (control proteins, R-1D1-3, R-2D1-3, R-3D1-3; chimeric proteins, R-3D1-R2D2+3 and R-3D1-R2D2-R1D3).
(§5) The immunoprecipitated fractions were analyzed on 17% SDS-PAGE and the dried gels were exposed for 12 hours on phosphoimager plates or 36 hours on X-ray films.
(§6) Ligand binding analysis was performed as described for the VEGF-C/VEGF-A hybrid growth factors in Example 1. Briefly, the unlabeled conditioned medium of transiently transfected 293T cells expressing the chimeric VEGFR/IgG1Fc fusion proteins was used to precipitate the ^35S metabolically labeled mature VEGF-C, full-length VEGF-C, and VEGF-A165.

[4] = tested on: mature VEGF-C, full-length VEGF-C; assay: Ligand binding analysis of chimeric VEGF receptor/hIgG1Fc fusions, VEGF-C; set-up: species or system human; conditions: 35S-labeled mature and full-length VEGF-C precipitated with conditioned medium of 293T cells, SDS-PAGE
Experimental: as §4, §5, §6

Chain of mature VEGF-C, full-length VEGF-C (P49767 112-227 limits assumed): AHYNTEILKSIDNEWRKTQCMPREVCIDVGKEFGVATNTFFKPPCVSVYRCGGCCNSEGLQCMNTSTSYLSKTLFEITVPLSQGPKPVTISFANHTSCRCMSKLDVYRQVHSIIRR

Row | Substance | Binds VEGF-A [1] | Binds VEGF-C ([2]; VEGFR-2 Fc fusion constructs) | Binds VEGF-C ([2]; VEGFR-3 Fc fusion constructs) | further results
1 | R-2 A: Fc fusion of VEGFR-2 (SEQ ID NO: 4) residues 24-326 with CD33 signal peptide; SEQ ID NOS: 7 and 8 | Yes | Yes |  | 
2 | R-2 B: Fc fusion of VEGFR-2 residues 24-220 with CD33 signal peptide; SEQ ID NOS: 9 and 10 | No | No |  | 
3 | R-2 C: Fc fusion of VEGFR-2 residues 24-226 with CD33 signal peptide; SEQ ID NOS: 11 and 12 | No | No |  | 
4 | R-2 D: Fc fusion of VEGFR-2 residues 24-232 with CD33 signal peptide; SEQ ID NOS: 13 and 14 | No | No |  | 
5 | R-2 E: Fc fusion of VEGFR-2 residues 24-241 with CD33 signal peptide; SEQ ID NOS: 15 and 16 | No | No |  | 
6 | R-2 F: Fc fusion of VEGFR-2 residues 24-122 with CD33 signal peptide; SEQ ID NOS: 17 and 18 | No | No |  | 
7 | R-2 G: Fc fusion of VEGFR-2 residues 118-326 with CD33 signal peptide; SEQ ID NOS: 19 and 20 | Yes | Yes |  | 
8 | R-2 H: Fc fusion of VEGFR-2 residues 118-220 with CD33 signal peptide; SEQ ID NOS: 21 and 22 | No | Yes |  | Binds VEGF-C ([2]; VEGFR-2 Fc fusion constructs, listed as R-2H): sufficient for VEGF-C binding
9 | R-2 I: Fc fusion of VEGFR-2 residues 118-226 with CD33 signal peptide; SEQ ID NOS: 23 and 24 | No | Weak |  | 
10 | R-2 J: Fc fusion of VEGFR-2 residues 118-232 with CD33 signal peptide; SEQ ID NOS: 25 and 26 | No | Very |  | 
11 | R-2 K: Fc fusion of VEGFR-2 residues 118-241 with CD33 signal peptide; SEQ ID NOS: 27 and 28 | No | No |  | 
12 | R-2 L: Fc fusion of VEGFR-2 residues 220-326 with CD33 signal peptide; SEQ ID NOS: 29 and 30 | No | No |  | 
13 | R-3 B: Fc fusion of VEGFR-3 residues 138-226 with CD33 signal peptide; SEQ ID NOS: 33 and 34 |  |  | Yes | 
14 | R-3 C: Fc fusion of VEGFR-3 residues 1-229; SEQ ID NOS: 35 and 36 |  |  | Yes | 
15 | R-3 D: Fc fusion of VEGFR-3 residues 1-226; SEQ ID NOS: 37 and 38 |  |  | Yes | 
16 | R-3 G: Fc fusion of VEGFR-3 residues 1-329 (D1-3); SEQ ID NOS: 43 and 44 |  |  | Yes | 
17 | R-3 H: Fc fusion of VEGFR-3 residues 1-134; SEQ ID NOS: 45 and 46 |  |  | No | 
18 | R-3 I: Fc fusion of VEGFR-3 residues 1-39, 132-329; SEQ ID NOS: 47 and 48 |  |  | No | 
19 | R-3 J: Fc fusion of VEGFR-3 residues 1-39, 132-247; SEQ ID NOS: 49 and 50 |  |  | No | 
20 | R-3 K: Fc fusion of VEGFR-3 residues 1-39, 132-229; SEQ ID NOS: 51 and 52 |  |  | No | 
21 | R-3D1-R2D2+3/Ig: chimeric hIgG1Fc fusion: first Ig-like domain of VEGFR-3 and second and third Ig-like domains of VEGFR-2; SEQ ID NO: 125 |  |  |  | binding to VEGF-A [3]: not VEGF-A; binding to VEGF-A, second experiment ([3]; second experiment, 35S-labeled VEGF-A165, SDS-PAGE): only weak binding; binding to VEGF-C [4]: exhibited binding
22 | R-3D1-R2D2-R1D3/Ig: chimeric hIgG1Fc fusion: first Ig-like domain of VEGFR-3, second of VEGFR-2, third of VEGFR-1; SEQ ID NO: 128 |  |  |  | binding to VEGF-A [3]: strongly bound; binding to VEGF-C [4]: strongly bound
